Measurements taken from PMC3993263.

T1: RaaS (UniProt O86312)
T1 sequence: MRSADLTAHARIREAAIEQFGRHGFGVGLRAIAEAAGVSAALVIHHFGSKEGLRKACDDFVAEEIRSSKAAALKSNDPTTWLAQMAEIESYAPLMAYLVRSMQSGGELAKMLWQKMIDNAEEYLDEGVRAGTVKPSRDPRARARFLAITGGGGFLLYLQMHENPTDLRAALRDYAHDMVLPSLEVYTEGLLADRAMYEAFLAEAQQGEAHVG

T2: RaaS (UniProt O86312 1-212)
T2 sequence: T1 sequence

B1: M6 (single repeat) (dsDNA)
DNA 1: GGGTGAACATGCGTTCA
DNA 2: GGGTGAACGCATGTTCA
B2: M5 (dsDNA)
DNA 1: GGGATGAACGTACGAAAAATATCCTGAACATGCGTTCAG
DNA 2: GGGCTGAACGCATGTTCAGGATATTTTTCGTACGTTCAT

Experiments:
RaaS [1] = biological target: T1, RaaS; experiment: fluorescence anisotropy; settings: anisotropy: 50 mM Tris-HCl pH 8.5, 150 mM NaCl, temperature not stated
RaaS [2] = biological target: T2, RaaS; experiment: EMSA; 20 nM DNA, 170 nM RaaS; […]; anisotropy: 50 mM Tris-HCl pH 8.5, 150 mM NaCl; temperature not stated; settings: protein: recombinant; tags: 6xHis (pET15-Tev); chain copies: 2; label: 32P; 5' overhang 3 nt on both strands

Row | Molecule | Kd (RaaS [1]) [nM] | binding result (RaaS [2])
1 | labeled RaaS-site oligonucleotide (anisotropy) | 31 | 
2 | B1 |  | no binding
3 | B2 |  | no binding
